Our source for the decrease in oxidation to bacillamide D in peptide synthesis assays, stoichiometry N and stoichiometry N (BmdB molecules per BmdC dimer) values is paper PMC8795117.

As a reminder, the stoichiometry N is the number of molecules, sites or subunits per partner or assembly.

Assay [1] has as its target BmdB (Thermoactinomyces vulgaris F-5595).
For assay [2], the target named is BmdC (Thermoactinomyces vulgaris F-5595). As to the kind of experiment: SEC; size-exclusion chromatography of BmdC alone (Supplementary Fig. 2e). (In general: SEC sorts molecules by how far they enter the pores of the column.)
Assay [3] addresses BmdB (Thermoactinomyces vulgaris F-5595). As to the kind of experiment: SEC; full-length BmdB and BmdC at 1–8 μM mixed (increasing BmdC, fixed BmdB), Superdex200 Increase 10/300, 50 mM Tris-HCl pH 7.5, 200 mM NaCl, 1 mM DTT.

With BmdC_D225R (enzyme), the decrease in oxidation to bacillamide D in peptide synthesis assays in assay [1] was found to be 50%.

Substance BmdC (enzyme) had a stoichiometry N in assay [2] of 2. The same substance yielded a stoichiometry N (BmdB molecules per BmdC dimer) in assay [3] of 2.
